Measured values taken from the supplement of paper PMC11136658.

Tested on: peptide library, one residue held at a place counted from the Y acceptor
Assay: relative phosphorylation of the sub-library (ratio to the mean residue at this position); higher = residue favoured
How it was run: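 Peptide library mixtures, biotinylated and centred on Tyr, each fixed one residue at one position from −5 to +5. Purified recombinant kinases were incubated with them for 90 min in 384-well plates alongside 50 μM ATP and γ-32P-ATP, and the captured, rinsed peptides on streptavidin membranes were measured by phosphorimaging and ImageQuant. Normalization divided each position's intensities by the sum of its 18 randomized residues (16 for the Ser/Thr-free library) and multiplied by that number, so that values give phosphorylation relative to the mean randomized residue.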

TXK, construct: aa239-end, human, sequence (P42681 239-527, looked up): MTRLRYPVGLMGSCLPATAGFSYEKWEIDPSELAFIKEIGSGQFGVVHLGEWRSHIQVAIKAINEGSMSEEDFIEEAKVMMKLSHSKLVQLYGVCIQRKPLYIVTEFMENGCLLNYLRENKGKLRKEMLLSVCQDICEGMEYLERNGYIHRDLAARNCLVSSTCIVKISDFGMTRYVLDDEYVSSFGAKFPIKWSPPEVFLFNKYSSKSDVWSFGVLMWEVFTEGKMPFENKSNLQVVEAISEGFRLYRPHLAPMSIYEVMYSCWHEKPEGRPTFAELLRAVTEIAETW
JAK2, construct: aa809-end plus 9aa C-term extension from Gateway cloning, human, sequence (O60674 809-1132, looked up): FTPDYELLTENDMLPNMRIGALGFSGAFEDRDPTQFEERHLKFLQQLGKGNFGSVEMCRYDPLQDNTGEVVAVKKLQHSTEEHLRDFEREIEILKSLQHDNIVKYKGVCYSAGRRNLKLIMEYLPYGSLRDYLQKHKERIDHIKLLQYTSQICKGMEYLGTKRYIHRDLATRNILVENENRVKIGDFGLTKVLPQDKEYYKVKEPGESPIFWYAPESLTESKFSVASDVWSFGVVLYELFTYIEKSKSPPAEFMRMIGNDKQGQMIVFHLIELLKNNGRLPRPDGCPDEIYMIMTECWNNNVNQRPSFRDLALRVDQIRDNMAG
PKMYT1, construct: Full length, human, sequence (Q99640 whole entry, looked up): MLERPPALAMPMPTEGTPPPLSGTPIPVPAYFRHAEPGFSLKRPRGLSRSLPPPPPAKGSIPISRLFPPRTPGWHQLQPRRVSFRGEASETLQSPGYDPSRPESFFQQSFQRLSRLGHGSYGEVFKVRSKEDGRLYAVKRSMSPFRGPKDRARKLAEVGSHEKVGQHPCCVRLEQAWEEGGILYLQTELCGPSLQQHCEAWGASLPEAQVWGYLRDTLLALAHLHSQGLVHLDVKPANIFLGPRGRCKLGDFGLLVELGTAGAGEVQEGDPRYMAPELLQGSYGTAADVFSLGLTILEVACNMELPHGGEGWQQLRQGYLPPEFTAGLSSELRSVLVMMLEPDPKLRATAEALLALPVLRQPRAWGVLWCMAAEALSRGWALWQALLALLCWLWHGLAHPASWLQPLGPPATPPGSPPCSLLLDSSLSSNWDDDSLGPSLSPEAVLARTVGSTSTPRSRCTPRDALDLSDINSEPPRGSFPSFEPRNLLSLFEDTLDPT

JAK2, construct: aa809-end plus 9aa C-term extension from Gateway cloning, human (from UniProt O60674)
relative phosphorylation
Details | at +1 | at +2 | at +3 | at +4 | at +5 | at -1 | at -2 | at -3 | at -4 | at -5
A fixed | 1.07 | 0.945 | 0.889 | 0.971 | 1.11 | 1.13 | 0.982 | 1.02 | 1.07 | 1.08
D fixed | 0.252 | 0.644 | 0.411 | 0.858 | 0.792 | 1.32 | 0.91 | 1 | 1.04 | 0.999
E fixed | 0.45 | 0.78 | 0.33 | 0.934 | 0.764 | 1.18 | 0.98 | 1.01 | 1.26 | 0.926
F fixed | 1.63 | 1.08 | 1.42 | 1.12 | 1.02 | 1.11 | 0.961 | 1.05 | 1.09 | 1.07
G fixed | 0.48 | 0.786 | 0.788 | 1.13 | 1.25 | 0.999 | 1.14 | 1.18 | 1.36 | 1.1
H fixed | 1.42 | 0.785 | 1.12 | 1.05 | 1.04 | 1.05 | 1.07 | 0.901 | 0.929 | 0.919
I fixed | 1.97 | 0.961 | 1.94 | 0.87 | 0.922 | 1.26 | 1.04 | 0.953 | 0.963 | 1.06
K fixed | 0.447 | 1.23 | 0.52 | 1.11 | 0.962 | 0.659 | 0.998 | 0.825 | 0.861 | 0.903
L fixed | 1.55 | 1.08 | 1.43 | 0.892 | 0.927 | 1.11 | 1.05 | 1.03 | 1.05 | 1.07
M fixed | 1.35 | 1 | 1.25 | 1.15 | 0.946 | 0.87 | 0.794 | 0.901 | 0.997 | 1.05
N fixed | 0.45 | 0.982 | 0.681 | 0.846 | 0.871 | 0.762 | 0.981 | 1.01 | 0.849 | 1.02
P fixed | 0.566 | 1.03 | 1.24 | 1.04 | 1.64 | 1.16 | 1.13 | 1.45 | 1.16 | 1.22
Q fixed | 0.9 | 0.975 | 0.667 | 1.12 | 0.867 | 0.745 | 0.954 | 0.824 | 1.11 | 1.01
R fixed | 0.623 | 1.2 | 0.686 | 1.09 | 0.931 | 0.616 | 0.984 | 0.757 | 0.886 | 0.877
S fixed | 0.814 | 1.02 | 0.893 | 0.966 | 1.1 | 0.987 | 1.05 | 1.02 | 0.772 | 0.927
T fixed | 1.09 | 1.07 | 1.17 | 0.909 | 1.06 | 0.989 | 0.98 | 0.976 | 0.716 | 0.824
V fixed | 1.76 | 1.1 | 1.35 | 0.915 | 0.886 | 1.14 | 0.983 | 1.03 | 0.836 | 0.988
W fixed | 1.18 | 1.32 | 1.23 | 1.04 | 0.914 | 0.909 | 1 | 1.05 | 1.05 | 0.952
pThr fixed | 0.332 | 0.537 | 0.205 | 0.53 | 0.543 | 1.1 | 0.744 | 0.944 | 1 | 0.905
pTyr fixed | 0.814 | 0.927 | 0.422 | 0.803 | 0.643 | 1.59 | 0.983 | 1.35 | 1.4 | 1.15

PKMYT1, construct: Full length, human (from UniProt Q99640)
relative phosphorylation
Details | at +1 | at +2 | at +3 | at +4 | at +5 | at -1 | at -2 | at -3 | at -4 | at -5
A fixed | 0.864 | 0.982 | 0.813 | 1.11 | 0.947 | 1.04 | 1.05 | 1.2 | 1.2 | 1.16
D fixed | 0.69 | 0.754 | 0.728 | 0.889 | 0.933 | 0.756 | 0.814 | 0.784 | 0.792 | 0.741
E fixed | 0.834 | 0.775 | 0.66 | 0.833 | 0.979 | 0.845 | 0.915 | 0.837 | 0.84 | 0.772
F fixed | 0.794 | 1.12 | 1.55 | 1.01 | 1.03 | 0.72 | 1.01 | 1.09 | 1.06 | 1.18
G fixed | 1.64 | 1.08 | 1.01 | 1.18 | 1.03 | 2.03 | 1.4 | 1.14 | 1.27 | 0.902
H fixed | 0.813 | 0.945 | 0.911 | 1.11 | 1.13 | 0.945 | 1.14 | 1.06 | 1.01 | 1.15
I fixed | 1.29 | 1.03 | 1.24 | 1.1 | 1 | 0.863 | 1.09 | 0.996 | 0.901 | 1.02
K fixed | 1 | 1.32 | 0.831 | 1.09 | 1 | 1.02 | 0.978 | 0.943 | 1.03 | 1.2
L fixed | 0.691 | 0.935 | 0.973 | 0.928 | 0.912 | 0.705 | 0.791 | 0.867 | 0.758 | 0.886
M fixed | 0.837 | 0.935 | 0.988 | 0.966 | 0.936 | 0.751 | 0.897 | 0.883 | 0.875 | 0.908
N fixed | 0.774 | 0.873 | 0.728 | 0.785 | 0.905 | 0.834 | 0.982 | 0.93 | 0.87 | 0.885
P fixed | 1.35 | 1.14 | 1.09 | 0.925 | 1.02 | 1.45 | 1 | 1.11 | 1.14 | 0.842
Q fixed | 0.865 | 0.821 | 0.667 | 0.787 | 0.853 | 0.828 | 0.777 | 0.867 | 0.928 | 0.855
R fixed | 1.18 | 1.25 | 0.938 | 1.12 | 1.29 | 1.18 | 1.08 | 1.23 | 1.26 | 1.31
V fixed | 1.39 | 1.07 | 0.967 | 0.998 | 0.918 | 1.01 | 1.09 | 1.04 | 0.936 | 0.928
W fixed | 0.992 | 0.962 | 1.92 | 1.16 | 1.12 | 1.02 | 0.995 | 1.02 | 1.15 | 1.26
pThr fixed | 0.868 | 0.729 | 0.691 | 0.838 | 0.635 | 1.04 | 0.974 | 0.888 | 0.912 | 0.719
pTyr fixed | 0.831 | 0.87 | 0.7 | 0.883 | 0.789 | 1.83 | 0.974 | 1.05 | 0.841 | 0.849

TXK, construct: aa239-end, human (from UniProt P42681)
relative phosphorylation
Details | at +1 | at +2 | at +3 | at +4 | at +5 | at -1 | at -2 | at -3 | at -4 | at -5
A fixed | 1.58 | 1.14 | 0.87 | 0.836 | 0.784 | 0.51 | 1.03 | 0.998 | 1.03 | 1.07
D fixed | 2.77 | 1.02 | 0.409 | 0.931 | 0.726 | 0.678 | 2.01 | 1.85 | 1.81 | 1.32
E fixed | 2.53 | 1.15 | 0.345 | 0.797 | 0.692 | 0.83 | 1.99 | 2.25 | 1.53 | 1.32
F fixed | 0.463 | 1.14 | 1.52 | 1.03 | 1.26 | 1 | 0.539 | 0.887 | 0.727 | 0.858
G fixed | 1.28 | 0.725 | 0.939 | 1.18 | 1.14 | 0.379 | 1.35 | 1.13 | 1.34 | 1.27
H fixed | 0.614 | 1.08 | 1.38 | 1.07 | 1.1 | 0.774 | 0.798 | 0.997 | 0.89 | 1.04
I fixed | 0.981 | 0.782 | 0.907 | 0.835 | 0.76 | 3.78 | 0.515 | 0.553 | 0.641 | 0.782
K fixed | 0.175 | 0.848 | 0.625 | 0.986 | 1.05 | 0.34 | 0.693 | 0.63 | 0.905 | 1.04
L fixed | 0.444 | 0.723 | 1.12 | 0.881 | 0.901 | 2.45 | 0.627 | 0.534 | 0.571 | 0.722
M fixed | 0.788 | 0.788 | 1.24 | 0.968 | 0.88 | 1.4 | 0.602 | 0.598 | 0.76 | 0.723
N fixed | 0.539 | 1.3 | 1.24 | 1.05 | 1.1 | 0.638 | 1.24 | 1.25 | 1.17 | 1.06
P fixed | 0.254 | 0.933 | 0.908 | 1.63 | 1.23 | 0.531 | 1.74 | 1.16 | 1.24 | 1.25
Q fixed | 0.98 | 1.16 | 0.937 | 0.94 | 1.08 | 0.514 | 1.19 | 1.19 | 1.19 | 1.16
R fixed | 0.207 | 1.14 | 1.01 | 1.13 | 1.21 | 0.27 | 0.605 | 0.64 | 0.858 | 0.944
S fixed | 1.22 | 1.41 | 1.07 | 0.968 | 0.896 | 0.575 | 1.06 | 0.995 | 0.895 | 0.898
T fixed | 1.39 | 1.64 | 0.808 | 1.09 | 1 | 0.948 | 0.87 | 0.928 | 0.908 | 0.807
V fixed | 1.57 | 1.01 | 0.9 | 0.834 | 0.783 | 1.45 | 0.624 | 0.571 | 0.728 | 0.771
W fixed | 0.829 | 1.06 | 1.64 | 0.899 | 1.3 | 0.461 | 0.443 | 0.77 | 0.607 | 0.668
pThr fixed | 3.94 | 2.21 | 0.407 | 0.62 | 0.444 | 1.85 | 1.4 | 1.35 | 1.14 | 0.994
pTyr fixed | 1.25 | 1.67 | 0.517 | 0.595 | 0.619 | 1.72 | 1.2 | 1.23 | 0.945 | 0.998
